Experimental data published in US5580747A, “Non-radioactive enzyme assay” (Promega Corporation, priority 1994, dated 1996).
No end group written: not given here.

Tests used:
protein kinase C = assay: Detection of small amounts of protein kinase C, agarose gel; type: biochemical; details: 30 minutes at room temperature, UV light
Method: Fifteen microliters of Promega Peptide 5 (SEQ ID NO:5) were incubated in protein kinase C reaction buffer (20 mM HEPES (pH 7.4), 1.3 mM CaCl2, 1 mM DTT, 10 mM MgCl2, 200 μg/mL phosphatidyl serine, 15 mM ATP), and 1 μg Protein Kinase C for 2 hours at room temperature in a final volume of 40 μl. The reaction was stopped by heating the reaction solution to 95° C. for ten minutes.
Five microliters of Promega Peptide 5 (SEQ ID NO:5) and 6 (SEQ ID NO:6) or 2.5 μl of Promega Peptide 4 (SEQ ID NO:4) were incubated with a solution containing 18 μl protein kinase C reaction buffer (described in Example 13) and decreasing amounts of protein kinase C, containing between 60 ng and 60 picograms (pg), for 30 minutes at room temperature. Reactions were stopped by heating the reaction mixtures to 95° C. for 10 minutes.
Referring to FIG. 11, the detection of phosphorylated peptide was observed under UV light, and detection limits noted. Six hundred picograms of protein kinase C could be detected by Promega Peptide 4 (SEQ ID NO:4), 3ng by Promega Protein 5 (SEQ ID NO:5), and 3 ng by Promega Protein 6 (SEQ ID NO:6).

Modified Trypsin = target: T1, Modified Trypsin (Sus scrofa, UniProt P00761); assay: Assay of pure proteases using modified peptides, agarose gel; type: biochemical; details: 90 minutes at 37° C., 0.1 to 0.001 μg protease
T1 construct: purchased Promega Corp., Madison, Wis
T1 sequence (P00761 9-231): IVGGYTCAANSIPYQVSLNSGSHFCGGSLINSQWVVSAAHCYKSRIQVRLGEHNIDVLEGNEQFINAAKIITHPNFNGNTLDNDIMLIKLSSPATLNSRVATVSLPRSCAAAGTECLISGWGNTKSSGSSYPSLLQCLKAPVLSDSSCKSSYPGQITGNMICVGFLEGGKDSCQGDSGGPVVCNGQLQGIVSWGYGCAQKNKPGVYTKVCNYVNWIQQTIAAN
Method: (§1) The proteases Modified Trypsin [sequencing grade] (Promega Corp., Madison, Wis.) and Endoprotease Lys C [sequencing grade] were dissolved in A buffer (50 mM ammonium bicarbonate, pH 7.8). These stocks were diluted with A buffer to produce stocks containing […] protease per 4 μl of liquid. Independent incubations of 4 μl of each of the different protease concentrations were performed with Promega Peptides 5 (SEQ ID NO:5), 6 (SEQ ID NO:6), 7 (SEQ ID NO:7) (5 μl of the stocks described above) in a 20 μl reaction mixture containing: 5 μl peptide; 4 μl protease; and 11 μl A buffer.
(§2) After 90 minutes at 37° C., the samples were loaded into a 0.8% agarose gel made in 20 mM Tris, pH 8.0. The samples were electrophoresed at 150 V. When the control peptide sample had migrated about 0.5 inch from the loading well, the gels were photographed on a transilluminator as described above.
(§3) Reference is made to FIG. 13, which is a photograph of the agarose gel used to analyze the peptide species produced in the digestion of Promega Peptide 6 (SEQ ID NO:6) by modified trypsin and Endoprotease Lys C. The gel was photographed under UV light as described in Example 1 and the gel is oriented such that the end of the gel which was oriented towards the negative electrode is towards the top of the photograph. The lanes are numbered from left to right. […]

Endoprotease Lys C = target: T2, Endoprotease Lys C (Lysobacter enzymogenes, UniProt Q7M135); assay: as above; type: biochemical; details: 90 minutes at 37° C., 0.1 to 0.001 μg protease
T2 construct: purchased Promega Corp., Madison, Wis
T2 sequence (Q7M135 whole entry): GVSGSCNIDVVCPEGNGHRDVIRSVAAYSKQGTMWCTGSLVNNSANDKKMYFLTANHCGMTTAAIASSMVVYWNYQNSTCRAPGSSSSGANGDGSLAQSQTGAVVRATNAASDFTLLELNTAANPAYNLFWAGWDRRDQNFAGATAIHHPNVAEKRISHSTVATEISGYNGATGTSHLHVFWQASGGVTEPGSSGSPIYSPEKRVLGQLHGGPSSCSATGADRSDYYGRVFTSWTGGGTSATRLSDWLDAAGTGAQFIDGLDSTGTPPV
Method: as §1, §2, §3

[1] = test system: Brevibacterium albidum culture supernate; assay: Assays of proteases in crude media samples; type: biochemical; details: 90 minutes at 37° C.
Method: (§4) Samples of culture supernate from stationary phase cultures of Thermus aquaticus (T. aquaticus) and Brevibacterium albidum (B. albidum) were made by centrifugation of a stationary phase culture at 12,000×g for 2 minutes and transfer of the supernate to fresh tubes. Diluted stocks of Promega Peptides 3 (SEQ ID NO:3), 5 (SEQ ID NO:5) and 6 (SEQ ID NO:6) were made by dilution of the original stocks of these peptides with an equal volume of 50 mM ammonium bicarbonate, pH 7.8. In three independent tubes per peptide, 10 μL of these diluted stocks were incubated with either 10 μL water, 10 μL Thermus supernate, or 10 μL Brevibacterium supernate. The incubations were performed for 90 minutes at 37° C. The samples were then loaded in a 0.9% agarose gel made with 20 mM Tris-Cl pH 8.0. The gel was then electrophoresed at 120 V for 30 minutes, and was photographed under UV light on a transilluminator as described above.
(§5) Reference is made to FIG. 15, which is a photograph of the agarose gel used to analyze the peptide species produced in the digestion of Promega Peptides 3 (SEQ ID NO:3), 5 (SEQ ID NO:5), and 6 (SEQ ID NO:6) by supernates of cultures of T. aquaticus and B, albidum. The gel was photographed under UV light as described in Example 1 and the gel is oriented such that the end of the gel which was oriented towards the negative electrode is towards the top of the photograph.

[2] = test system: Thermus aquaticus culture supernate; assay: Assays of proteases in crude media samples; type: biochemical; details: 90 minutes at 37° C.
Method: as §4, §5

alkaline phosphatase = details: peptide phosphorylated by protein kinase C; pH 9.2, 37° C. for 45 minutes
Method: Promega Peptide 6 (SEQ ID NO:6) was phosphorylated to provide a substrate for alkaline phosphatase in the following manner: 40 μl Promega Peptide 6 (SEQ ID NO:6) were incubated in a solution containing 20 mM HEPES (pH 7.4), 1.67 mM CaCl2, 1 mM dithiothreotol, 10 mM MgCl2, 100 μg/mL phosphatidylserine, 2 mM ATP, and 50 ng protein kinase C in a final volume of 100 μl at 37° C. for 1.5 hours. The reaction was stopped by incubating the mixture at 95° C. for 10 minutes.
After phosphorylation, 0.1M Tris (pH 9.5) was added to a final pH of 9.2. Fifteen microliters of this solution were mixed with between 0.08 to 200 pmoles of alkaline phosphatase in a final volume of 20 μl and incubated at 37° C. for 45 minutes. The reaction was stopped by freezing the mixtures in a dry ice/ethanol bath. Glycerol was added to a final concentration of 4%, and the samples were run on a 0.8% agarose gel at 75 V for 20 minutes.

[3] = target: catalytic subunit of the cAMP-dependent protein kinase (Homo sapiens, UniProt P17612); assay: Quantitation of cAMP-dependent protein kinase activity using microtiter plate reader; type: biochemical; details: for A570: phosphorylated peptide band
Method: Eight microliters of Promega Peptide 7 (SEQ ID NO:7) was phosphorylated by the catalytic subunit of the cAMP-dependent protein kinase. The amount of kinase used in the assay varied from 4.5 μg to 0.9 ng, diluted from a stock solution of 2.25 mg/ml. The reactions took place in a volume of 24 μl for 30 minutes at room temperature, and were stopped by heating the solutions at 95° C. for five minutes.
After heating, glycerol was added to the solutions to a final concentration of 4%. The solutions were then loaded on a 0.8% agarose gel, which was run at 100 V until the phosphorylated and non-phosphorylated bands had separated and migrated from the wells.
The agarose containing the phosphorylated peptide was excised from the gel with a razor blade and placed into Eppendorph tubes. The agarose was melted, and 145 μl agarose solution were diluted in urea and acetic acid to a final concentration of 2M and 1M, respectively, in a final volume of 250 μl.
The solutions were placed in the wells of a microtiter plate and allowed to cool. After the agarose re-solidified, the absorbance of the wells at 570 nanometers (nm) was read.

[4] = target: catalytic subunit of cAMP-dependent protein kinase (Homo sapiens, UniProt P17612); assay: Quantitation of cAMP-dependent protein kinase activity using a spectrophotometer; type: biochemical; details: for A570: phosphorylated peptide band
Method: Three microliters of Promega Peptide 7 (SEQ ID NO:7) were phosphorylated by varying amounts of cAMP-dependent protein kinase. The reactions took place in a volume of 20 μl in a solution containing 3 mM ATP, 20 mM HEPES buffer (pH 7.4), and between 50 ng and 1 μg catalytic subunit of cAMP-dependent protein kinase. The mixture was incubated for 30 minutes at room temperature, and the reactions were stopped by heating the mixture at 95° C. for five minutes.
At this time, the phosphorylated and non-phosphorylated species had separated and could be detected by ultraviolet light. The phosphorylated peptide was then excised from the gel with a razor blade, and the agarose was melted by heating at 95° C. for 2 minutes. Two hundred microliters of the melted agarose were then diluted to 400 μl in a solution containing 2M urea and 1M acetic acid. The absorbance of the solution at 570 nm was then determined in a Milton-Roy Spectronic 1201 spectrophotometer.

[5] = target: cAMP-dependent protein kinase (Homo sapiens, UniProt P17612); assay: Radioactive kinase assay of peptide substrates (32P incorporation, P81 filter); type: biochemical
Method: Radioactive kinase assays were carried out as described in Walton et al., as modified and described here. Five μl Promega Peptide 1 (SEQ ID NO:1) were added to a reaction mixture containing 20mM Tris HCl (pH 7.4), 10 mM MgCl2, 4 micrograms (μg) of cAMP-dependent protein kinase (both catalytic and regulatory subunits), in the presence or absence of 2 micromolar (μM) cAMP, in a volume of 50 μl.
The reaction began with the addition of 10 μl of solution containing 0.15 mM [γ32 P] ATP (about 0.05 Ci/mmol) and 10 mM MgCl2. After a two minute incubation, the reaction was terminated by the addition of 30 μl of H3 PO4 to a final concentration of 0.5%. To measure incorporation of radiolabelled phosphate into the peptide substrate, half the reaction mixture was spotted onto a Whatmann P81 filter. The filters were washed four times in a solution containing 0.5% H3 PO4. Each wash lasted at least five minutes. After washing, the radioactivity present on the filters was measured in a scintillation counter.

[6] = 8 μl peptide, 30 minutes at room temperature

Substance: Promega Peptide 4: Lissamine Rhodamine-tagged peptide *-R-F-A-R-K-G-S-L-R-Q-K-N-V (SEQ ID NO:4) ({Lissamine Rhodamine}-RFARKGSLRQKNV)
- amount of protein kinase C that could be detected (protein kinase C): Six hundred

Substance: Promega Peptide 6: Lissamine Rhodamine-tagged peptide *-P-L-S-R-T-L-S-V-A-A-K-K (SEQ ID NO:6) ({Lissamine Rhodamine}-PLSRTLSVAAKK)
- amount of protein kinase C that could be detected (protein kinase C): 3 ng
- digestion by Modified Trypsin (Modified Trypsin): fluorescent species with mobilities altered
- digestion by Endoprotease Lys C (Endoprotease Lys C): fluorescent species with mobilities altered
- proteolysis by B. albidum supernate [1]: proteolytic cleavage of the peptide had occurred
- proteolysis by T. aquaticus supernate [2]: proteolytic cleavage of the peptide had occurred
- amount of alkaline phosphatase at which dephosphorylation of the phosphorylated peptide could be seen (alkaline phosphatase): 60 ng

Substance: Promega Peptide 7: Lissamine Rhodamine-tagged Kemptide *-L-R-R-A-S-L-G (SEQ ID NO:7) ({Lissamine Rhodamine}-LRRASLG)
- digestion by Endoprotease Lys C (Endoprotease Lys C): did not show any digestion
- kinase amount below which it could not be detected [3, 6]: 0.009 µg
- kinase amount that saturated the system [3, 6]: more than 0.9 μg
- A570 -Blank ([3]; Kinase 0.0009 μg (1:10,000)): 0.009
- A570 -Blank ([3]; Kinase 0.009 μg (1:1,000)): 0.010
- A570 -Blank ([3]; Kinase 0.09 μg (1:100)): 0.022
- A570 -Blank ([3]; Kinase 0.9 μg (1:10)): 0.107
- A570 -Blank ([3]; Kinase 4.5 μg (1:2)): 0.106
- A570 ([3]; Kinase 0.0009 μg (1:10,000)): 0.106 +/- 0.013
- A570 ([3]; Kinase 0.009 μg (1:1,000)): 0.107 +/- 0.003
- A570 ([3]; Kinase 0.09 μg (1:100)): 0.119 +/- 0.002
- A570 ([3]; Kinase 0.9 μg (1:10)): 0.204 +/- 0.003
- A570 ([3]; Kinase 4.5 μg (1:2)): 0.203 +/- 0.005
- correlation coefficient between kinase concentration and absorbance ([3]; range of 0.009 to 0.9 μg kinase added): 0.999
- A570 -Blank ([4]; Kinase 0.05 μg (1:200)): 0.009
- A570 -Blank ([4]; Kinase 0.10 μg (1:100)): 0.021
- A570 -Blank ([4]; Kinase 0.20 μg (1:50)): 0.029
- A570 -Blank ([4]; Kinase 0.50 μg (1:20)): 0.130
- A570 -Blank ([4]; Kinase 1.0 μg (1:10)): 0.163
- A570 ([4]; Kinase 0.05 μg (1:200)): 0.024
- A570 ([4]; Kinase 0.10 μg (1:100)): 0.036
- A570 ([4]; Kinase 0.20 μg (1:50)): 0.044
- A570 ([4]; Kinase 0.50 μg (1:20)): 0.145
- A570 ([4]; Kinase 1.0 μg (1:10)): 0.178

Substance: Promega Peptide 5: Lissamine Rhodamine-tagged peptide *-Q-R-R-Q-R-K-S-R-R-T-I (SEQ ID NO:5) ({Lissamine Rhodamine}-QRRQRKSRRTI)
- amount of protein kinase C that could be detected (protein kinase C): 3 ng
- proteolysis by B. albidum supernate [1]: proteolysis of the peptide had taken place
- proteolysis by T. aquaticus supernate [2]: proteolysis of the peptide had taken place

Substance: LRRASLG [Kemptide]
- CPM (+cAMP) ([5]; 2 μM cAMP, 4 μg cAMP-dependent protein kinase, [γ32P]ATP, two minute incubation): 471,840 CPM
- Stimulation ([5]; CPM +cAMP relative to no cAMP): 82
- CPM (no cAMP) ([5]; no cAMP, 4 μg cAMP-dependent protein kinase, [γ32P]ATP, two minute incubation): 5760 CPM

Substance: Sulforhodamine 101 Derivative of V^6 A^5 Kemptide ({sulforhodamine 101}-LRRASVA) [Promega Peptide 3]
- proteolysis by B. albidum supernate [1]: novel peptide species made in small amount
- proteolysis by T. aquaticus supernate [2]: proteolytic cleavage of the peptide had occurred
